Assay results: patent publication US20260139240A1

Key:
[1] = target: Human α1-acid glycoprotein (AGP) (human) (UniProt P02763); assay: SPR (Biacore T100), SubB immobilised
[2] = target: Human α1-acid glycoprotein (AGP) (human) (UniProt P02763); assay: SPR (Biacore […]), […], single cycle kinetics

With “Wild type SubB (subtilase cytotoxin B subunit) (from UniProt Q6EZC3 24-141) (other; other documents disagree on this pair)” the fold reduced binding affinity compared to bovine AGP [1] was 13 fold and the Kd [2] was 2120 nM.
